Laboratory results from the supplement of paper PMC9112550, “Optimization of the antimicrobial peptide Bac7 by deep mutational scanning” (BMC Biology, 2022).

Tested on: Escherichia coli TOP10
Assay: shrunken log2 fold change of peptide-encoding DNA abundance (4.5 h post-induction vs induction); higher = less antimicrobial activity (less host growth inhibition)
Conditions: time post-induction: 4.5 h; library: site-saturation at positions 5, 18, 19, 20
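Also: peptides expressed intracellularly from a pBAD plasmid library in pooled LB shake-flask culture, induced with 0.3% L-arabinose, DNA abundance read by NGS, three biological replicates, DESeq2 with apeglm shrinkage.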

| Sequence | shrunken log2 fold change |
| --- | --- |
| RRIRKRPPRLPRPRPRPEPDPRP | 0.877 |
| RRIRTRPPRLPRPRPRPDIMPRP | -0.624 |
| RRIRWRPPRLPRPRPRPSLMPRP | 0.122 |
| RRIRQRPPRLPRPRPRPGIKPRP | -1.89e-05 |
| RRIRMRPPRLPRPRPRPNWFPRP | -0.607 |
| RRIRCRPPRLPRPRPRPHNLPRP | -0.592 |
| RRIRMRPPRLPRPRPRPGNCPRP | 0.0879 |
| RRIRLRPPRLPRPRPRPSHDPRP | -0.385 |
| RRIRDRPPRLPRPRPRPPKRPRP | -0.0222 |
| RRIRKRPPRLPRPRPRPHFWPRP | 0.188 |
| RRIRRRPPRLPRPRPRPMNYPRP | -0.0341 |
| RRIRWRPPRLPRPRPRPGPLPRP | 0.0252 |
| RRIRMRPPRLPRPRPRPYVIPRP | -0.125 |
| RRIRRRPPRLPRPRPRPLFKPRP | -0.00471 |
| RRIRARPPRLPRPRPRPFDNPRP | 0.098 |
| RRIRFRPPRLPRPRPRPNSMPRP | -1.01 |
| RRIRGRPPRLPRPRPRPRAMPRP | 0.787 |
| RRIRDRPPRLPRPRPRPGITPRP | 0.297 |
| RRIRNRPPRLPRPRPRPPIIPRP | -0.192 |
| RRIRDRPPRLPRPRPRPIQYPRP | -0.0088 |
| RRIRSRPPRLPRPRPRPEYDPRP | 0.0801 |
| RRIRCRPPRLPRPRPRPQYQPRP | -0.697 |
| RRIRHRPPRLPRPRPRPIVAPRP | 0.0238 |
| RRIRPRPPRLPRPRPRPFVNPRP | -0.196 |
| RRIRDRPPRLPRPRPRPCINPRP | 0.224 |

| Sequence | shrunken log2 fold change |
| --- | --- |
| RRIRTRPPRLPRPRPRPAYQPRP | -0.0436 |
| RRIRLRPPRLPRPRPRPLVHPRP | -0.0413 |
| RRIRIRPPRLPRPRPRPMCHPRP | -0.316 |
| RRIRRRPPRLPRPRPRPFYWPRP | -0.34 |
| RRIRWRPPRLPRPRPRPYAQPRP | -0.189 |
| RRIRKRPPRLPRPRPRPISMPRP | -0.00992 |
| RRIRNRPPRLPRPRPRPRTGPRP | -0.0238 |
| RRIRNRPPRLPRPRPRPCRHPRP | -0.149 |
| RRIRCRPPRLPRPRPRPNVYPRP | -0.53 |
| RRIRLRPPRLPRPRPRPGSKPRP | -0.559 |
| RRIRPRPPRLPRPRPRPGTPPRP | 0.0946 |
| RRIRIRPPRLPRPRPRPAIVPRP | -0.135 |
| RRIRFRPPRLPRPRPRPVHDPRP | 0.0232 |
| RRIRMRPPRLPRPRPRPCCEPRP | 0.192 |
| RRIRCRPPRLPRPRPRPIAIPRP | -0.443 |
| RRIRDRPPRLPRPRPRPFTGPRP | -0.267 |
| RRIRDRPPRLPRPRPRPPEDPRP | 0.402 |
| RRIRGRPPRLPRPRPRPRFWPRP | 0.943 |
| RRIRARPPRLPRPRPRPTCQPRP | 0.431 |
| RRIRWRPPRLPRPRPRPFRFPRP | -0.0501 |
| RRIRYRPPRLPRPRPRPADSPRP | -0.212 |
| RRIRGRPPRLPRPRPRPTAVPRP | 2.41 |
| RRIRHRPPRLPRPRPRPAEIPRP | 0.000898 |
| RRIRRRPPRLPRPRPRPWHDPRP | 0.0389 |
| RRIRHRPPRLPRPRPRPINHPRP | -0.97 |

| Sequence | shrunken log2 fold change |
| --- | --- |
| RRIRVRPPRLPRPRPRPSTNPRP | -0.146 |
| RRIRHRPPRLPRPRPRPKTGPRP | -0.0854 |
| RRIRYRPPRLPRPRPRPCMMPRP | 0.00911 |
| RRIRPRPPRLPRPRPRPYGGPRP | -0.153 |
| RRIRERPPRLPRPRPRPSMFPRP | -0.723 |
| RRIRNRPPRLPRPRPRPEIQPRP | -0.0724 |
| RRIRCRPPRLPRPRPRPTGLPRP | 0.106 |
| RRIRYRPPRLPRPRPRPMMSPRP | -0.322 |
| RRIRWRPPRLPRPRPRPQLPPRP | -0.00654 |
| RRIRFRPPRLPRPRPRPEGWPRP | 0.807 |
| RRIRCRPPRLPRPRPRPMHLPRP | 0.0527 |
| RRIRTRPPRLPRPRPRPKAWPRP | 0.255 |
| RRIRVRPPRLPRPRPRPDFAPRP | 0.147 |
| RRIRVRPPRLPRPRPRPMDYPRP | -0.0122 |
| RRIRGRPPRLPRPRPRPCKRPRP | 0.0886 |
| RRIRNRPPRLPRPRPRPESPPRP | 0.0142 |
| RRIRSRPPRLPRPRPRPGMQPRP | -0.394 |
| RRIRFRPPRLPRPRPRPPEKPRP | 0.078 |
| RRIRFRPPRLPRPRPRPEADPRP | 0.24 |
| RRIRRRPPRLPRPRPRPTNYPRP | -0.0945 |
| RRIRERPPRLPRPRPRPTQSPRP | 0.329 |
| RRIRKRPPRLPRPRPRPPYCPRP | 0.0662 |
| RRIRSRPPRLPRPRPRPDVFPRP | -0.098 |
| RRIRTRPPRLPRPRPRPRYDPRP | -0.123 |
| RRIRWRPPRLPRPRPRPFTAPRP | -0.0343 |

| Sequence | shrunken log2 fold change |
| --- | --- |
| RRIRNRPPRLPRPRPRPDNNPRP | -0.187 |
| RRIRRRPPRLPRPRPRPPHMPRP | 1.11 |
| RRIRHRPPRLPRPRPRPVRTPRP | 0.314 |
| RRIRVRPPRLPRPRPRPDEGPRP | 0.0672 |
| RRIRRRPPRLPRPRPRPVWSPRP | -0.103 |
| RRIRKRPPRLPRPRPRPQHCPRP | -0.0588 |
| RRIRIRPPRLPRPRPRPGIFPRP | -0.5 |
| RRIRHRPPRLPRPRPRPRCLPRP | -0.169 |
| RRIRMRPPRLPRPRPRPPQEPRP | 0.161 |
| RRIRCRPPRLPRPRPRPALDPRP | 0.356 |
| RRIRGRPPRLPRPRPRPFYLPRP | -0.0695 |
| RRIRWRPPRLPRPRPRPAMQPRP | 0.298 |
| RRIRRRPPRLPRPRPRPKQKPRP | 0.264 |
| RRIRTRPPRLPRPRPRPREAPRP | 0.388 |
| RRIRWRPPRLPRPRPRPVWNPRP | -0.232 |
| RRIRTRPPRLPRPRPRPSNRPRP | -0.0802 |
| RRIRFRPPRLPRPRPRPYGKPRP | -0.514 |
| RRIRNRPPRLPRPRPRPPELPRP | 0.142 |
| RRIRCRPPRLPRPRPRPHEEPRP | 0.0524 |
| RRIRQRPPRLPRPRPRPGMNPRP | 0.0205 |
| RRIRRRPPRLPRPRPRPFYIPRP | -0.039 |
| RRIRERPPRLPRPRPRPRRKPRP | 0.11 |
| RRIRFRPPRLPRPRPRPYKMPRP | -0.62 |
| RRIRSRPPRLPRPRPRPQSYPRP | 0.107 |
| RRIRARPPRLPRPRPRPNHKPRP | -0.351 |

| Sequence | shrunken log2 fold change |
| --- | --- |
| RRIRTRPPRLPRPRPRPGTPPRP | 0.0833 |
| RRIRQRPPRLPRPRPRPGTMPRP | 0.00897 |
| RRIRTRPPRLPRPRPRPDETPRP | 0.0482 |
| RRIRKRPPRLPRPRPRPPPIPRP | 0.748 |
| RRIRVRPPRLPRPRPRPDVMPRP | -0.00879 |
| RRIRTRPPRLPRPRPRPWPMPRP | 0.44 |
| RRIRIRPPRLPRPRPRPNLAPRP | -0.114 |
| RRIRCRPPRLPRPRPRPIHHPRP | -0.481 |
| RRIRFRPPRLPRPRPRPASGPRP | 0.206 |
| RRIRIRPPRLPRPRPRPKTNPRP | -0.334 |
| RRIRYRPPRLPRPRPRPIFQPRP | -0.568 |
| RRIRTRPPRLPRPRPRPPTCPRP | 0.174 |
| RRIRARPPRLPRPRPRPWKVPRP | -0.279 |
| RRIRNRPPRLPRPRPRPDCHPRP | 0.081 |
| RRIRGRPPRLPRPRPRPDRHPRP | 0.191 |
| RRIRQRPPRLPRPRPRPLCWPRP | -0.0481 |
| RRIRQRPPRLPRPRPRPPYGPRP | -0.408 |
| RRIRLRPPRLPRPRPRPCPVPRP | -0.393 |
| RRIRWRPPRLPRPRPRPNAQPRP | -0.0306 |
| RRIRHRPPRLPRPRPRPDKFPRP | -0.16 |
| RRIRSRPPRLPRPRPRPSYKPRP | -0.659 |
| RRIRVRPPRLPRPRPRPWYWPRP | -0.332 |
| RRIRMRPPRLPRPRPRPELWPRP | 3.17 |
| RRIRSRPPRLPRPRPRPTYTPRP | -0.24 |
| RRIRSRPPRLPRPRPRPCDRPRP | -0.00911 |

| Sequence | shrunken log2 fold change |
| --- | --- |
| RRIRVRPPRLPRPRPRPATIPRP | -0.101 |
| RRIRPRPPRLPRPRPRPFNPPRP | -0.296 |
| RRIRIRPPRLPRPRPRPVWWPRP | 0.0779 |
| RRIRWRPPRLPRPRPRPIICPRP | -0.523 |
| RRIRWRPPRLPRPRPRPQAFPRP | 0.0509 |
| RRIRRRPPRLPRPRPRPMSYPRP | -0.0379 |
| RRIRGRPPRLPRPRPRPHHIPRP | -0.525 |
| RRIRRRPPRLPRPRPRPGKMPRP | 0.0473 |
| RRIRLRPPRLPRPRPRPLWHPRP | 0.0621 |
| RRIRERPPRLPRPRPRPEMRPRP | 0.151 |
| RRIRARPPRLPRPRPRPSPDPRP | 0.553 |
| RRIRARPPRLPRPRPRPFGIPRP | 0.0411 |
| RRIRQRPPRLPRPRPRPQPLPRP | -0.0826 |
| RRIRSRPPRLPRPRPRPYEQPRP | -0.0601 |
| RRIRERPPRLPRPRPRPVKVPRP | -0.205 |
| RRIRTRPPRLPRPRPRPGYDPRP | -0.697 |
| RRIRNRPPRLPRPRPRPTEMPRP | -0.283 |
| RRIRNRPPRLPRPRPRPAVAPRP | 0.339 |
| RRIRQRPPRLPRPRPRPYACPRP | 0.0958 |
| RRIRIRPPRLPRPRPRPASAPRP | 0.613 |
| RRIRFRPPRLPRPRPRPWWPPRP | 0.0712 |
| RRIRHRPPRLPRPRPRPHYPPRP | -0.208 |
| RRIRDRPPRLPRPRPRPGMRPRP | 1.02 |
| RRIRYRPPRLPRPRPRPNLLPRP | -0.213 |
| RRIRWRPPRLPRPRPRPGDPPRP | 1.14 |
